Results on one molecule are retold here after US20190153096A1 (COVAGEN, published 2019).

The target in the experiment is T1, Human C1q (EMD Millipore) (human, UniProt P02745 23-245; P02746 28-253; P02747 29-245).
T1 construct: Bought protein; the three subunits are added from general knowledge
As to the kind of experiment: SPR (BIAcore), antibody immobilised on the chip, human C1q injected at 3.125-200 nM.

T1 sequence (P02745 23-245 limits assumed, chain 1 of 3): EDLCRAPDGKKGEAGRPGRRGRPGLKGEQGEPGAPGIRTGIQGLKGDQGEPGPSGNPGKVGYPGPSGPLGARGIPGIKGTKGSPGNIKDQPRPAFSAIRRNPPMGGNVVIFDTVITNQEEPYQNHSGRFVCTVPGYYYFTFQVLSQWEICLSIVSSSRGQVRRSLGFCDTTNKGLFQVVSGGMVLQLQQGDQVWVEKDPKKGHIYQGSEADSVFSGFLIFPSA
T1 sequence (P02746 28-253 limits assumed, chain 2 of 3): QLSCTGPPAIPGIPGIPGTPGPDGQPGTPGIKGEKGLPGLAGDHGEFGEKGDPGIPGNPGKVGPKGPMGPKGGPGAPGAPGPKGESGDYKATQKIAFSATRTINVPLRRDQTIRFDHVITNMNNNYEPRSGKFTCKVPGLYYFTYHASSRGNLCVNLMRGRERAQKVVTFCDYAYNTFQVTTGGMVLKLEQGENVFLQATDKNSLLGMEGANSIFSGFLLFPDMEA
T1 sequence (P02747 29-245 limits assumed, chain 3 of 3): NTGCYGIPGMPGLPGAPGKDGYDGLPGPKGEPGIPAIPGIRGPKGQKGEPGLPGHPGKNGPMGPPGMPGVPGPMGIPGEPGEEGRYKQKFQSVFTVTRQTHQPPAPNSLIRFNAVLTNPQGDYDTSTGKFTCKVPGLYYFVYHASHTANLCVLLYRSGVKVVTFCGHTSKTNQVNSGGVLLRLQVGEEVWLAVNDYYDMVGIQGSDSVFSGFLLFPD
Experimental: Antibodies were coated onto a CMS chip via amine coupling at coating density of 5000 RU Human C1q (EMD Millipore) was injected in running buffer (PBS pH7.4, 0.05% TWEEN-20) at 200 nM and three-fold serial dilutions thereof at a flow rate of 30 μl/min. Binding was recorded, and KD was determined by curve fitting using the BIAcore software using a steady-state affinity model.

B1: mAb1 DANAPA IgG1 (antibody)
heavy: QVQLQQSGAELARPGASVKMSCKASGYTFTRSTMHWVKQRPGQGLEWIGYINPSSAYTNYNQKFKDKATLTADKSSSTAYMQLSSLTSEDSAVYYCASPQVHYDYNGFPYWGQGTLVTVSAASTKGPSVFPLAPSSKSTSGGTAALGCLVKDYFPEPVTVSWNSGALTSGVHTFPAVLQSSGLYSLSSVVTVPSSSLGTQTYICNVNHKPSNTKVDKKVEPKSCDKTHTCPPCPAPELLGGPSVFLFPPKPKDTLMISRTPEVTCVVVAVSHEDPEVKFNWYVDGVEVHNAKTKPREEQYASTYRVVSVLTVLHQDWLNGKEYKCKVSNKALAAPIEKTISKAKGQPREPQVYTLPPSREEMTKNQVSLTCLVKGFYPSDIAVEWESNGQPENNYKTTPPVLDSDGSFFLYSKLTVDKSRWQQGNVFSCSVMHEALHNHYTQKSLSLSPGK
light: QVVLTQSPAIMSAFPGEKVTMTCSASSSVSYMNWYQQKSGTSPKRWIYDSSKLASGVPARFSGSGSGTSYSLTISSMETEDAATYYCQQWSRNPPTFGGGTKLQITRTVAAPSVFIFPPSDEQLKSGTASVVCLLNNFYPREAKVQWKVDNALQSGNSQESVTEQDSKDSTYSLSSTLTLSKADYEKHKVYACEVTHQGLSSPVTKSFNRGEC
notes: mAb1 with D265A, N297A, P329A (EU); also called DANAPA Fc mutated mAb1
As for B1, the binding result is “no binding (tested: 200 nM)”.
